{
  "source": "the DeepSol protein solubility set",
  "data": [
    {"assay": "soluble on expression in E. coli; label from the status in PepcDB or PDB records", "values": [
      {"sequence": "MSTFIRGPICGTDNCPSRLWRIIDGRRTCQYGHVMEGDVEFNDDEDDLNGLGAGVITRRLNLTTNATGSFQSSQLTNSQLLQQQQRQSHKKFKKLIGHEAKLLFLKSFQFILKRQIRWLITEMRFPKEFEHVAKIIWLKILKTINDQPQEELKLQLHMTSTISILYLASTHLSLPVYTCDYIKWICTAKMPYFQASEILPKSWRIQLPNYYVSILEGSISPFNGQLYNKIALTCGMIHFKEFFNSEISCQGLLLKLVMQCALPPEFYFYTKQVIEFEETDIRNLTLWERTDERHTGRVSNHAELRVLSYFMLTINWMLSFDRDRQYPLKWILSLTESLTQRTTTSESIGRNIVKVVYPDKPTSSDYFQWSEEETLEFLKWMEKQFLPTQTKSLHNENGSMEMTIDQKIARRKLYKIFPLDREANHDGEFNDSTHQLTFIEDLQERYAKQTPFFESNKIRDSLNYQEANPPARKEAIGRLLTHIASQLLVDFAISKEQLKDCISRIKNACLHRMN", "soluble on expression in E. coli": "not soluble"},
      {"sequence": "MNLPAHTALFTPSWHAELELGYGRFYDCTRPTQRRHKGPLRVQKHLYAEGPEVCQHIIVHPPGGIAGGDRLDISVNVGAHAWAQLTSPGAAKWYRAASPAFQQLELHVQPGATLEWLPQETIVFSNAQAELTTRIELHGDARLCYWDVVALGRPASGERFEHGHFQSHLDIRRDGTLLWHERQRIIGADGLLDSPIGLDGKTVFATLLLTGDVDSDLLEVCRSLSMPSPVRGNLTQLPGLIVARCLADEALHARAWLIEIWKRLRPALLGREAVMPRIWNTLEHHHHHH", "soluble on expression in E. coli": "not soluble"},
      {"sequence": "NSNFINIGERTNVAGSRKFARLIREKNYEEALTIARHQVENGAQIIDINFDDALLDARSEMETFLRLIASEPEISKVPVMIDSSNFEVLKVGLKSIQGKAIVNSISLKVGEEKFIEEAKFIKNFGAGVVVMAFDEEGQAATYERKIEICKRAYTILTEKVEFPPENIIFDPNILSIATGIEEHDNYAVNYIKAVKWIKENLPYAKVSGGVSNLSFSFRGNDAIRRAMHSVFLYHAINAGMDMGIVNPAMIDLYDDIDKDLLEKVENVVLNKSSNASESLLEFAQTYKKTTETLEKH", "soluble on expression in E. coli": "not soluble"},
      {"sequence": "MSLTDPAPEPEPPVEGQWTALTASPDTWDETKRADISYQLLLYSFADSDGDGYGDLNGVTQKLDYLNQLGVKALWLSPIHPCMSYHGYDVTDYTKVNPQLGTESDFDRLVTEAHNRGIKIYLDYVMNHTGTAHPWFTEASSSSESPYRNYYSFSEDPKTDIAAGKIAMITQEGAAGYNAAEWFQVSDETAAVKGLLKFTLDWSNAPSPILVVSTGTKADEDNPDTGTDNAKYLYYGEDICKKFYDKGNNIYELTVDFESTWGLLIRTSNASFWPSGTKYGASSSSEKLALNKDFKLTNAGNPANIMFDSQQITYFHSHFCTDWFADLNYGPVDQAGESPAYQAIADAAKGWIARGVDGLRLDAVKHIYHSETSEENPRFLKMFYEDMNAYYKQKGHTDDFYMIGEVLSEYDKVAPYYKGLPALFEFSFWYRLEWGINNSTGCYFAKDILSYQQKYANYRSDYIEATKLSNHDEDRTSSKLGKSADKCKLAAAVLLTSAGHPYIYYGEELGLYGTKDNGDEYVRSPMLWGDSYTTNYTDKTDATVSKNVKTVADQQADTHSLLNIYFSLTRLRNTYPALAEGNMTKHSVYNEGHHHHHH", "soluble on expression in E. coli": "not soluble"},
      {"sequence": "MAHHHHHHMHSVVPMSSYIHPTQVSIGAAPRMAVQEMHPDAKRKGRRVVATMELKPGNAIFAAPPDIAVLYSPFARHICARCLVADVRACAEPLKAHHHHHQHPHQQPHATLSRSPVGASSSPSSLSSSTAAPAAAPVRPYCCPNCDQFVLCAPCVAQLLLDSGVDVTSAAGTDAVQTTAPLLQRRGEGKRGVSVVDERLHLHPLLRAHAISCAWYTSLPASIRAPGNDTDFLRFCLDYGARAYLGDTAMMRALATLDTNASVQSKESMQLCEVFARDRVVATFGKEPKAVTATTLATAASAKHMGIDPLSNQAGTHASGGIHRGGNSDGVRCRGSAAVSPFPPRYPISWTDLRDTLLRTRCNSIGFPYNTEETTGWSLHQTVCMLNHSCVPNAAVIMLYDSADAMAAAAALAARTGASHTAPPKERTQEAARRKASERIAAFRAVATSSESPYSTSYSPSLAGWIGIEATRPIAAGEEITISYVDLGSLGDDLQTRSRHLLEQYRFLCTCELCMRQRSLKR", "soluble on expression in E. coli": "not soluble"},
      {"sequence": "MGSDKIHHHHHHMDEQTHTHLSRRRTLTASAGVLSAGLAGCITSGDTDGDPESGPTVAVASFFSFYDFARKIVADTPITVRNLIPTGLHGHGWEPNASITKEILDADALIHVGPDFQPWVDRAIESLDDDDADTRRINVRDGVELVDLAASLDRDEEGIGQNRGKDPHFWLDPNRAKQSIDNLTEGFVQLAPSHENTLRTNAAAYKSGVLDELDDAYAAIFDRADRDVVQLAAHNAFQYLGTAYDIEMRPLVVNLAASGTVKASDIMDAKQTIDDNDITYIGAAVFETRRPAEQLLSETDVEAYYPVTPYAGVREDWVQQGWGYEEIARNINMPTFKLLLGNAAPDDVGGAEWNATWRNFE", "soluble on expression in E. coli": "not soluble"},
      {"sequence": "MPTVRLADGDLNYSLEGPAGAPVLLLSNSLGTDLGMWDTQIPALTAHFRVLRYDTRGHGASLVTPGPYAIGQLGADVLALLDALELPRVHFCGLSMGGLIGQWLGIHAGERLGRLVLCNTAAKIASDEVWNTRIDTVLKGGEQAMRDLRDASVARWFTAGFAEREPAQVERIVAMLAATSPQGYAANCAAVRDADFREQLGLVQAPTLIVAGSHDAVTTPDNARFMQARIADAQLVEFAAAHLSNVEAGDAFSRRLVDFLL", "soluble on expression in E. coli": "not soluble"},
      {"sequence": "MSLEAKNTFDLSGGYVLPGFIDSHAHLLSTGLEQTRLNLFEYEAKIEAIDAIRRYAEKHDKVVAYRWDESRWRDDPTYITASDLDGIVKPVVAFRRDGHMAVANDQAMRSIGQHRPDGIFREEDMQMLDPLVKPGEEEYVQALQTAIGISASLGITGVRDIVDRATYDAYRRIKSNVRIFKVIYAEDLFAGFGSDPSDWGVKTFLDGSLGARTAAHEGWDTKNLKMSEQQFERFCEGTWSRNLPVAVHAIGDLAVRVAAETMHRHAGRQRNSIEHFELVEDGVLDIIDANTIVSAQPNFLEWAGHGGMYQDRLGESWLYRNNPYRDILDKGLKLAFGSDSMPLGPMYGIHYAVNSEFSQQRITFDEAVRSYSEAGSYLIGAENWIGRIETGYSADFAVFNERNIEDRRRLKEAKPLMTIVHGNTIYDASRVDEGHHHHHH", "soluble on expression in E. coli": "not soluble"},
      {"sequence": "MGSDKIHHHHHHMIDFHVHTTFSDSTMTPAVAVRHAKMAGYRAVALTDHADHANMDLILRQTLPLARKYSLYAGIEVFAGVELTHVPPALIPEAVREARAMGAQLVLVHGETISDAVETGTNLAAIEGGVDILAHPGLVSDEDAAYAAERGVRFEITTRPGHALTNGHVAMAARRHGVRCVINNDAHHSRDFVNPDHRLAVALGAGLTTAEVTAAEAESRTLLGRLLREVR", "soluble on expression in E. coli": "not soluble"},
      {"sequence": "RSECMGFFRRLLGLSWISIPKLPKKERKNNHDESENESLGNGYDTGESENLSGYLNNSEYEDGPAGESADDPDDYIPPHKEEGENDSSQSIQMGSMTVELAQEEEKADEALLAEIKTDPRMDLASYKFPSVDLLTQYDLQQPPIDMNEIEENQKRIIATLDSFKIHVTPIKATVGPTVTLYEVAPDSGIKISRIRNLEDDIAMSLKAVGGIRIIAPMPGKGTIGIEVPNRKPQTVSMYSVLTSKKYQESDMDLPVALGKTITNEVFIFDLCKMPHLLIAGATGQGKSVGLNAMITSLLYKKHPAELKFVLVDPKMLEFAVYEAIERHYLAKLPDEDRAIVTDMTKVVPTLNSLCIEMDNRYRMLTEARVRNIKEYNDQIISGKLSRLHGHKFLPYIVLIVDEFADLIMTSGKEVERPITRIAQKARAAGIHMVVATQRPSTDIITGIIKANFPARIAFKVFSMIDSRTILDQPGANQLVGRGDMLFYQGKDTVRLQCAFLDTPECEAVTHHISLQESYTSAYELPEYVPEGEEGGPKAFNPQEKDPLFEEVARMVVNSQQGSTSNIQRKFNIGYNRAGRLMDQLEGAGIVSPQDGSKPRQVLIQDEMSLERLFETLR", "soluble on expression in E. coli": "not soluble"},
      {"sequence": "MKNETLHTQEDIIKMLDSLLRPAEPFWNEFYANREKDVPFFENVPDENLVSYIQKKRVSKGKVLELGCGPGRNAIYLANEGFDVTAVDVSIEGINWAKERALAKGVEIEFICDSIFNLEVQNEFDFVYDSGCLHHIPPHRRVNYVDLIKNALKSGGYFGLTCFAAGDLDERNGSEITDWDVYRGWSLQGGLAYSEEKLREIFKGFEVIEIRKMEQIEQPNTMFGESFLWTALFKKNLEHHHHHH", "soluble on expression in E. coli": "soluble"},
      {"sequence": "MTEQLKDFDVAEHLTSEEEIQLYLNEILQEDNIELILSALGDIARARNMSQIARDAGISREGLYKALSGTGNPTFATVMKVMKALNLQFQVQQSRFA", "soluble on expression in E. coli": "not soluble"},
      {"sequence": "MGSDKIHHHHHHMPNVNLDALIPREDFEVIENNSRASSFNQNVSVKDLEKGEFFYAGLRKPDFQRETSDWTDEQLCEFIQSFIDGDLIPAVILWNSGPYNFVIDGAHRLGALISWINDDYGDGHISQKFFNNEIDDEQKDIANKTRERIKNTVKPYSDYKKVILDSSDCDRGILEKALSLGRTSIQLQWVTGGAEKAELSFFKINQKASKINDTEIELLKSRRKAFAIASRAIIRAGTGHQYWSKFDNDVMQNIETMAKEIHSLIFLPKVSGAVRTLDLPLVKKHNSPQTNSFIFDLVKKCNNVPVNTIKIDDDDNGKLTVEYLKNVRKFLRRINSSHPSSLGLHPLVYFYNKRGNHIYSAILAWVDTIVTIEKTKVSLSSFLFIRSDLEKFLIKYKHFISGVNAKYGSGVKSYKHILKINSIIINQLQKRESEKYIVDSILNEYGFLSESDDVNVTSARFSTDIKSQIYIQETLPKTSTCSHCHGFIHQNSISFDHIVRKQDGGKGNVGNGALMHPYCNTSEKN", "soluble on expression in E. coli": "not soluble"},
      {"sequence": "MSLIIRKLFEFENAHIVRFCSSKRCKSSIHGHSYKVEVLLESKYLDNAGMVYDFGLLKTYIRQIIDSFDHAITLFKYDDAKYLEEMKKYSSRWICLPVNVSAENFCRVFFILIDALLKQTKMVNGEQGVTLQSIIVHETRTGYAQGFREDAYSELMPKISLQDIEFSNGIKAEWNDIDFYNKLKNEEIFINPKEEGHHHHHH", "soluble on expression in E. coli": "soluble"},
      {"sequence": "MGSDKIHHHHHHMVQHLVDLLDTWLPSYQEDWVLAVLTQVEGSSYRKPGAIMLFHPMGKSLGMLSGGCLEADLRRHAQRAIQTQQVIQLTYDATDESDTSYQLGCGGIVNIMMVSLNKANNYLGLVSVHDALMRGDRGTYQLEIVADGVSSHQISGHFVEASSDAAPITLNTKTLKVTEQHKTLLQIPLRPPVHIGIFGGGLDAKPIAQMAQTMGWKVTIFDERTAYARTYDFPGCHIMKHPTPSISTDLLSGLDAAFIMSHNLQIDAKTLKTLQPLPLAYISLLGPVHRRDKVLDMAELSLKDFSGYFSAPAGLALGGELPGSVALSILSQCHGVLYNSKLTSLDSVML", "soluble on expression in E. coli": "not soluble"},
      {"sequence": "MAYTIGVDFGTLSGRAVLVHVQTGEELAAAVKEYRHAVIDTVLPKTGQKLPRDWALQHPADYLEVLETTIPSLLEQTGVDPKDIIGIGIDFTACTILPIDSSGQPLCMLPEYEEEPHSYVKLWKHHAAQKHADRLNQIAEEEGEAFLQRYGGKISSEWMIPKVMQIAEEAPHIYEAADRIIEAADWIVYQLCGSLKRSNCTAGYKAMWSEKAGYPSDDFFEKLNPSMKTITKDKLSGSIHSVGEKAGSLTEKMAKLTGLLPGTAVAVANVDAHVSVPAVGITEPGKMLMIMGTSTCHVLLGEEVHIVPGMCGVVDNGILPGYAGYEAGQSCVGDHFDWFVKTCVPPAYQEEAKEKNIGVHELLSEKANHQAPGESGLLALDWWNGNRSTLVDADLTGMLLGMTLLTKPEEIYRALVEATAYGTRMIIETFKESGVPIEELFAAGGIAEKNPFVMQIYADVTNMDIKISGSPQAPALGSAIFGALAAGKEKGGYDDIKKAAANMGKLKDITYTPNAENAAVYEKLYAEYKELVHYFGKENHVMKRLKTIKNLQFSSAAKK", "soluble on expression in E. coli": "soluble"},
      {"sequence": "ADPEKSYAEGPGLDGGECFQPSKFKIHAVDPDGVHRTDGGDGFVVTIEGPAPVDPVMVDNGDGTYDVEFEPKEAGDYVINLTLDGDNVNGFPKTVTVKPA", "soluble on expression in E. coli": "soluble"}
    ]}
  ]
}
